Results as given in US20170252458A1 (EISAI R AND D MANAGEMENT, published 2017).

B1: MORAb-003-VCP-eribulin (MORAb-202) (antibody, human IgG1, kappa, V domains shown)
VH: EVQLVESGGGVVQPGRSLRLSCSASGFTFSGYGLSWVRQAPGKGLEWVAMISSGGSYTYYADSVKGRFAISRDNAKNTLFLQMDSLRPEDTGVYFCARHGDDPAWFAYWGQGTPVTVSS
VL: DIQLTQSPSSLSASVGDRVTITCSVSSSISSNNLHWYQQKPGKAPKPWIYGTSNLASGVPSRFSGSGSGTDYTFTISSLQPEDIATYYCQQWSSYPYMYTFGQGTKVEIKR
modifications: Mal-PEG2-Val-Cit-pAB-eribulin on interchain cysteines, sites not given
B2: 33011-zu (antibody, human IgG1, kappa, V domains shown)
VH: EVQLVESGGGLVQPGGSLRLSCAASGISLSSDAISWVRQAPGKGLEYIGIINGGGNTYYASWAKGRFTISRHNSKNTLYLQMNSLRAEDTAVYYCARGIQHGGGNSDYYYYGMDLWGQGTLVTVSS
VL: DIQMTQSPSSLSASVGDRVTITCQASQSISSVLSWYQQKPGKAPKLLIYLASTLASGVPSRFSGSGSGTDFTLTISSLQCEDIATYYCQTNYGTSSSNYGFAFGGGTKVEIKR
notes: Humanized anti-human mesothelin with unpaired cysteine at LCcys80; parental (unconjugated) mAb in Biacore; also called 33O11 zu
B3: 111B10-xi (antibody, human IgG1, kappa, V domains shown)
VH: QSVEESGGRLVTPGTPLTLTCTVSGFSLNNYAMSWVRQAPGKGLEWIGSISTGGLAFYANWAKGRFTISRTSTTVDLKMTSLTTEDTATYFCGRNGGGSYIFYYFDLWGQGTLVTVSS
VL: AFELTQTPSSVEAAVGGTITIKCQASQSISSYLSWYQQKPGQPPKLLIYSASTLASGVSSRFKGSGSGTEYTLTISDLECADAATYFCQSYYDIGTSTFGGGTEVVVKR
notes: Rabbit-human chimeric anti-human mesothelin with unpaired cysteine at LCcys80; parental mAb in Biacore; also called 111810 xi

Columns and labels:
[1] = target: T1, Human folate receptor alpha on tumor cells (human, UniProt P15328 25-234); test: cell-based or functional assay
T1 sequence (P15328 25-234 limits assumed): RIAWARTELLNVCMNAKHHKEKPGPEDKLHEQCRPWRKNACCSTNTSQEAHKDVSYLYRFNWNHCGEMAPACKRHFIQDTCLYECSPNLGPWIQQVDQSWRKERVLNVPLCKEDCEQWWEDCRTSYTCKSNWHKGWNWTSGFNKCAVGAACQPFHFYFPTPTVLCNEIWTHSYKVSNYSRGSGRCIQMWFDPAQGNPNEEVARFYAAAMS

[2] = target: T1, Human folate receptor alpha on tumor …; test: cell-based or functional assay; remark: listed apart in the source
[3] = target: T2, Recombinant human mesothelin (human, UniProt Q13421 296-580, limits assumed); test: Biacore T100, antibody captured on anti-human IgG, antigen injected, 1:1 Langmuir
T2 construct: also called MSLN
T2 sequence (Q13421 other isoform, or with tags, fused parts or gaps limits assumed): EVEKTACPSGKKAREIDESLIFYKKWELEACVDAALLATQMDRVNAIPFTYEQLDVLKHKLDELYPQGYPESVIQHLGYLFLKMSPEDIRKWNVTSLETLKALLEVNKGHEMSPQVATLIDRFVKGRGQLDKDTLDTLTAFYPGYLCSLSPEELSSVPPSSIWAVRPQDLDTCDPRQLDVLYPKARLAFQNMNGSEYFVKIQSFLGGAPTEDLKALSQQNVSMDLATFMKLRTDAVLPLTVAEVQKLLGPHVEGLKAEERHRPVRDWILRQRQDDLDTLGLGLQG
Experimental: Antibody concentrations were adjusted to 2 μg/mL in HBS-P+ buffer (GE Healthcare). Unmodified antibodies, or ADCs, were injected over an anti-human IgG sensor on a BIAcore T100 (GE Healthcare) for 1 min at a flow rate of 10 μL/min. To record the antigen association to the captured antibody, a series of increasing concentrations of antigen was injected for 300 sec at a flow rate of 30 μL/min. […] The dissociation of antigen was monitored for 30 min at the same flow rate. The sensor surface was regenerated by injecting 3 M MgCl₂ for 2×30 sec at a flow rate of 30 μL/min. Sensograms were analyzed with Biacore T100 Evaluation Software using a 1:1 Langmuir binding model.
Binding affinities of the parental antibodies were determined by Biacore analysis, as described above in section 1.6.1. Aggregation levels for all anti-human mesothelin ADCs were determined by SEC-HPLC and the DAR was analyzed using HIC-HPLC. In vitro potency was evaluated using a Crystal Violet cell-based cytotoxicity assay in A3 (A431 stabily transfected with human mesothelin (MSLN), MSLN^hi), OVCAR3 (human ovarian, MSLN^hi), HEC-251 (human endometroid, MSLN^med), H226 (human lung squamous cell mesothelioma, MSLN^lo, and A431 parental (MSLN^neg) cells. The results of the DAR, aggregation, and cytotoxicity analyses are shown in Table 50.

Binder | Cytotoxicity EC50 (nM), A431-A3 (FR+/-), Crystal Violet assay [1] [nM] | Cytotoxicity EC50 (nM), IGROV I (FR+++), Crystal Violet assay [1] [nM] | Cytotoxicity EC50 (nM), NCI-H2110 (FR++), Crystal Violet assay [1] [nM] | Cytotoxicity EC50 (nM), OVCAR3 (FR++), Crystal Violet assay [1] [nM] | IC50 (read off the curve), % survival of IGROV1 cells, conjugate alone [2] [nM] | IC50 (read off the curve), % survival of IGROV1 cells, in the presence of 2 µM unconjugated MORAb-003 as competitor [2] [nM] | Kd [3] [nM]
B1 | 23 | 0.01 | 0.74 | 0.16 | ~0.03 | ~3 | 
B2 |  |  |  |  |  |  | 3.4
B3 |  |  |  |  |  |  | 6.3
